Test results: patent US20140213531A1 (POLYPHOR, published 2014)
Bridges are numbered along the chain shown (N, C = ends). [ ]: non-standard residue; d: D form. Pro(4NHCOPhe) = not defined here; Nle = CCCC[C@H](N)C(=O)O

Key:
[1] = target: Chymotrypsin, from human pancreas (human, UniProt P17538 19-263); experiment: cell-based or functional assay
[2] = target: T1, CathepsinG, from human neutrophils (human, UniProt P08311 21-244); experiment: cell-based or functional assay
T1 sequence (looked up): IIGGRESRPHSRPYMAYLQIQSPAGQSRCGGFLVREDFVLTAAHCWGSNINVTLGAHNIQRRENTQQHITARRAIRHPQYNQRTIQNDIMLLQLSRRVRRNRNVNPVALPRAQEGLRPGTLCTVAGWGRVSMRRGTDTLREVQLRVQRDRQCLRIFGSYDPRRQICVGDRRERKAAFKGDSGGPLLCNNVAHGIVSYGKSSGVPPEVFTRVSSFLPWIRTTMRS

[3] = target: Trypsin, Iodination grade, from human pancreas (human, UniProt P07477 24-247); experiment: cell-based or functional assay
[4] = target: Tryptase, from human lung (human, UniProt Q15661 31-275, limits assumed); experiment: cell-based or functional assay
Target sequence in this assay (Q15661 31-275 limits assumed): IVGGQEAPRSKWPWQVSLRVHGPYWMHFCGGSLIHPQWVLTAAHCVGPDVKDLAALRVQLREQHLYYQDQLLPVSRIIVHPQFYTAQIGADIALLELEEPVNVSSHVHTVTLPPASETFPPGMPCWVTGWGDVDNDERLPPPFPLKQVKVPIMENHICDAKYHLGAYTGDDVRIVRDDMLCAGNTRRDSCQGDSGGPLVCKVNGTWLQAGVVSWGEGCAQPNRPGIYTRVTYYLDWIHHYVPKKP

[5] = target: Thrombin, from Human Plasma, high activity (human, UniProt P00734 328-622); experiment: cell-based or functional assay
[6] = target: Urokinase from human urine (human, UniProt P00749 21-431, limits assumed); experiment: cell-based or functional assay
[7] = target: T2, Elastase from human neutrophils (human, UniProt P08246 30-247, limits assumed); experiment: cell-based or functional assay
T2 sequence (looked up): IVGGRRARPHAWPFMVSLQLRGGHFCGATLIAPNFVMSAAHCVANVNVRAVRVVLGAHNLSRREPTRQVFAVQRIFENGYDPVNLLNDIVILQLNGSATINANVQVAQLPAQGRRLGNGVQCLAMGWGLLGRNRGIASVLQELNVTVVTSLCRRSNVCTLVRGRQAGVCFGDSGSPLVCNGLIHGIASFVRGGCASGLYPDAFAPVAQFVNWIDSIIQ

[8] = target: Coagulation Factor Xa, from human plasma (human, UniProt P00742 41-488, limits assumed); experiment: cell-based or functional assay
Chymase, from human skin [9] = target: T3, Chymase, from human skin (human, UniProt P23946 22-247); experiment: cell-based or functional assay
T3 sequence (looked up): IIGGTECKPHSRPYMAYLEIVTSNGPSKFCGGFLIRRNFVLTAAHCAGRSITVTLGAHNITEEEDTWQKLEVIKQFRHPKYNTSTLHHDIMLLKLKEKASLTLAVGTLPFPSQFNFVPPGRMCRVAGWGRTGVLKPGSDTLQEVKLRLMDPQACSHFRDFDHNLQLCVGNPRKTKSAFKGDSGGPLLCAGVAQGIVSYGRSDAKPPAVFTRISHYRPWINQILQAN

Chymase, from human skin [10] = target: T4, Chymase, from human skin (human, UniProt P23946 22-247); experiment: enzyme inhibition, pNA substrate
T4 construct: purified natural enzyme, bought
T4 sequence (looked up): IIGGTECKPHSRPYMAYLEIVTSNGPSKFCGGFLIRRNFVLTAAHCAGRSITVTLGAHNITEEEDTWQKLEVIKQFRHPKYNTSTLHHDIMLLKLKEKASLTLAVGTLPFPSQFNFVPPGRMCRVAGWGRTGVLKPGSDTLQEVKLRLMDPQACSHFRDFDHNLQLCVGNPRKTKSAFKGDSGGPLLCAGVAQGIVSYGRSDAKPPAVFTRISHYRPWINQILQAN

[11] = target: Thrombin, from Human Plasma, high activity (human, UniProt P00734 328-622); experiment: enzyme inhibition, pNA substrate
[12] = target: T5, Trypsin, Iodination grade, from human pancreas (human, UniProt P07477 24-247); experiment: enzyme inhibition, pNA substrate
T5 construct: purified natural enzyme, bought

[13] = target: T6, Coagulation Factor Xa, from uman plasma (human, UniProt P00742 41-179; P00742 235-488, limits assumed); experiment: enzyme inhibition, pNA substrate
T6 construct: purified natural enzyme, bought; also called FXa

[14] = target: T7, Tryptase, from human lung (human, UniProt Q15661 31-275, limits assumed); experiment: enzyme inhibition, pNA substrate
T7 construct: purified natural enzyme, bought
T7 sequence (Q15661 31-275 limits assumed): as the sequence (Q15661 31-275 limits assumed) above

Coagulation Factor Xa, from human plasma, sequence (P00742 41-488 limits assumed): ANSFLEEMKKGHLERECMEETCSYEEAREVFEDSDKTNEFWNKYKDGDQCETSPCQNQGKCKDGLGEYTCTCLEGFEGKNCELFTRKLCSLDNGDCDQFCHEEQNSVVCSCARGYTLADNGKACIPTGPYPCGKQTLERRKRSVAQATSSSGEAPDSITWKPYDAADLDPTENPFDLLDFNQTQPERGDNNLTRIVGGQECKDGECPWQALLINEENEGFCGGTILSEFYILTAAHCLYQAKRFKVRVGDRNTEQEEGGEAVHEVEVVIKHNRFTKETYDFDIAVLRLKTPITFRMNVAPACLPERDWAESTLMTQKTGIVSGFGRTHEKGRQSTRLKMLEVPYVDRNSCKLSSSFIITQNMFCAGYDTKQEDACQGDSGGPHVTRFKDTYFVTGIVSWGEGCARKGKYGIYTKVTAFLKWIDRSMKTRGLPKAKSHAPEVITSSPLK
Chymotrypsin, from human pancreas, sequence (P17538 19-263): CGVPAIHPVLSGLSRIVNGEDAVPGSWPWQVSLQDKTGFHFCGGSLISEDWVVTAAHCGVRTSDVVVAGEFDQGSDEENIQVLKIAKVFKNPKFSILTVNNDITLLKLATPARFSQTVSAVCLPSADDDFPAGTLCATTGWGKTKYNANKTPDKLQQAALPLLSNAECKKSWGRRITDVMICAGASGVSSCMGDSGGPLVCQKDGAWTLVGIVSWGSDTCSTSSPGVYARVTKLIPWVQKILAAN
T6 sequence (P00742 41-179 limits assumed, chain 1 of 2): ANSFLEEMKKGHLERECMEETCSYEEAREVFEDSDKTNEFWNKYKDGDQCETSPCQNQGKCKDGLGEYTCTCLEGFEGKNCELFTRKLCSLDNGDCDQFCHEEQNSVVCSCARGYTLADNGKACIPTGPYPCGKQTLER
T6 sequence (P00742 235-488 limits assumed, chain 2 of 2): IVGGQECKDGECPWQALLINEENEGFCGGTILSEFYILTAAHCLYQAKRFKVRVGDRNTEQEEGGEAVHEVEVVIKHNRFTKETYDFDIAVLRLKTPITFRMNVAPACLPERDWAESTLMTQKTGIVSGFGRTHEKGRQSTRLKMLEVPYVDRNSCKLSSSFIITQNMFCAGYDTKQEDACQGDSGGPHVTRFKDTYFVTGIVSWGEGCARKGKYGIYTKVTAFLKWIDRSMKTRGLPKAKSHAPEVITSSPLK

B1: Example 75 (peptide)
peptide: RCTKSDPPICF
HELM: PEPTIDE1{R.C.T.K.S.D.P.P.I.C.F.[dP].P}$PEPTIDE1,PEPTIDE1,2:R3-10:R3|PEPTIDE1,PEPTIDE1,1:R1-13:R2$$$V2.0
SMILES: CC[C@H](C)[C@@H]1NC(=O)[C@@H]2CCCN2C(=O)[C@@H]2CCCN2C(=O)[C@H](CC(=O)O)NC(=O)[C@H](CO)NC(=O)[C@H](CCCCN)NC(=O)[C@H]([C@@H](C)O)NC(=O)[C@@H]2CSSC[C@H](NC1=O)C(=O)N[C@@H](Cc1ccccc1)C(=O)N1CCC[C@@H]1C(=O)N1CCC[C@H]1C(=O)N[C@@H](CCCNC(=N)N)C(=O)N2
% inhibition at 100 µM [1]: 7.8%
IC50 [2]: 86 nmol
% inhibition at 100 µM [3]: 92.6%
% inhibition at 100 µM [4]: 0%
% inhibition at 100 µM [5]: 1.1%
% inhibition at 100 µM [6]: 5.7%
% inhibition at 100 µM [7]: 69.1%
% inhibition at 100 µM [8]: 5.7%
% inhibition at 100 µM (Chymase, from human skin [9]): 0%

B2: Example 7 (peptide)
peptide: RETKSDPPIRF
HELM: PEPTIDE1{R.E.T.K.S.D.P.P.I.R.F.[dP].P}$PEPTIDE1,PEPTIDE1,1:R1-13:R2$$$V2.0
SMILES: CC[C@H](C)[C@@H]1NC(=O)[C@@H]2CCCN2C(=O)[C@@H]2CCCN2C(=O)[C@H](CC(=O)O)NC(=O)[C@H](CO)NC(=O)[C@H](CCCCN)NC(=O)[C@H]([C@@H](C)O)NC(=O)[C@H](CCC(=O)O)NC(=O)[C@H](CCCNC(=N)N)NC(=O)[C@@H]2CCCN2C(=O)[C@H]2CCCN2C(=O)[C@H](Cc2ccccc2)NC(=O)[C@H](CCCNC(=N)N)NC1=O
% inhibition at 100 µM [1]: 12%
IC50 [2]: 91 nmol
% inhibition at 100 µM [3]: 41%
% inhibition at 100 µM [4]: 1.5%
% inhibition at 100 µM [5]: 0%
% inhibition at 100 µM [6]: 1.1%
% inhibition at 100 µM [7]: 1.5%
% inhibition at 100 µM [8]: 11.7%
% inhibition at 100 µM (Chymase, from human skin [9]): 13.4%

B3: Example 12 (peptide)
peptide: XCTKSDPPICR
HELM: PEPTIDE1{[O=C([C@@H](N[*:1])C1CCCCC1)[*:2]].C.T.K.S.D.P.P.I.C.R.[dP].P}$PEPTIDE1,PEPTIDE1,2:R3-10:R3|PEPTIDE1,PEPTIDE1,1:R1-13:R2$$$V2.0
SMILES: CC[C@H](C)[C@@H]1NC(=O)[C@@H]2CCCN2C(=O)[C@@H]2CCCN2C(=O)[C@H](CC(=O)O)NC(=O)[C@H](CO)NC(=O)[C@H](CCCCN)NC(=O)[C@H]([C@@H](C)O)NC(=O)[C@@H]2CSSC[C@H](NC1=O)C(=O)N[C@@H](CCCNC(=N)N)C(=O)N1CCC[C@@H]1C(=O)N1CCC[C@H]1C(=O)N[C@@H](C1CCCCC1)C(=O)N2
% inhibition at 100 µM [1]: 28%
IC50 [2]: 90 nmol
% inhibition at 100 µM [3]: 97%
% inhibition at 100 µM [4]: 59.3%
% inhibition at 100 µM [5]: 11%
% inhibition at 100 µM [6]: 12%
IC50 [7]: 37000 nmol
% inhibition at 100 µM [8]: 5%
% inhibition at 100 µM (Chymase, from human skin [9]): 12%

B4: Example 90 (peptide)
peptide: XCTASIPPQCF
HELM: PEPTIDE1{[Nle].C.T.A.S.I.P.P.Q.C.F.[dP].P}$PEPTIDE1,PEPTIDE1,2:R3-10:R3|PEPTIDE1,PEPTIDE1,1:R1-13:R2$$$V2.0
SMILES: CCCC[C@@H]1NC(=O)[C@@H]2CCCN2C(=O)[C@H]2CCCN2C(=O)[C@H](Cc2ccccc2)NC(=O)[C@@H]2CSSC[C@H](NC1=O)C(=O)N[C@@H]([C@@H](C)O)C(=O)N[C@@H](C)C(=O)N[C@@H](CO)C(=O)N[C@@H]([C@@H](C)CC)C(=O)N1CCC[C@H]1C(=O)N1CCC[C@H]1C(=O)N[C@@H](CCC(N)=O)C(=O)N2
notes: also called Ex. 90
% inhibition at 100 µM (Chymase, from human skin [10]): 0%
% inhibition at 100 µM [11]: 0%

B5: Example 131 (peptide)
peptide: XCTASIPPQCQ
HELM: PEPTIDE1{[Nle].C.T.A.S.I.P.P.Q.C.Q.[dP].P}$PEPTIDE1,PEPTIDE1,2:R3-10:R3|PEPTIDE1,PEPTIDE1,1:R1-13:R2$$$V2.0
SMILES: CCCC[C@@H]1NC(=O)[C@@H]2CCCN2C(=O)[C@H]2CCCN2C(=O)[C@H](CCC(N)=O)NC(=O)[C@@H]2CSSC[C@H](NC1=O)C(=O)N[C@@H]([C@@H](C)O)C(=O)N[C@@H](C)C(=O)N[C@@H](CO)C(=O)N[C@@H]([C@@H](C)CC)C(=O)N1CCC[C@H]1C(=O)N1CCC[C@H]1C(=O)N[C@@H](CCC(N)=O)C(=O)N2
% inhibition at 100 µM [12]: 0%

B6: Example 103 (peptide)
peptide: XCTASIPPQCY
HELM: PEPTIDE1{[O=C([C@H](CCc1ccccc1)N[*:1])[*:2]].C.T.A.S.I.P.P.Q.C.Y.[dP].P}$PEPTIDE1,PEPTIDE1,2:R3-10:R3|PEPTIDE1,PEPTIDE1,1:R1-13:R2$$$V2.0
SMILES: CC[C@H](C)[C@@H]1NC(=O)[C@H](CO)NC(=O)[C@H](C)NC(=O)[C@H]([C@@H](C)O)NC(=O)[C@@H]2CSSC[C@H](NC(=O)[C@H](CCC(N)=O)NC(=O)[C@@H]3CCCN3C(=O)[C@@H]3CCCN3C1=O)C(=O)N[C@@H](Cc1ccc(O)cc1)C(=O)N1CCC[C@@H]1C(=O)N1CCC[C@H]1C(=O)N[C@@H](CCc1ccccc1)C(=O)N2
% inhibition at 100 µM (Chymase, from human skin [10]): 0%
% inhibition at 100 µM [11]: 10.2%

cyclo([Nle]CTASIPPQCY[dF]P) (disulfide 2-10) [Example 116]
% inhibition at 100 µM [12]: 0%

B7: Example 121 (peptide)
peptide: XCTASIPPQCY
HELM: PEPTIDE1{[Nle].C.T.A.S.I.P.P.Q.C.Y.[dP].D}$PEPTIDE1,PEPTIDE1,2:R3-10:R3|PEPTIDE1,PEPTIDE1,1:R1-13:R2$$$V2.0
SMILES: CCCC[C@@H]1NC(=O)[C@H](CC(=O)O)NC(=O)[C@H]2CCCN2C(=O)[C@H](Cc2ccc(O)cc2)NC(=O)[C@@H]2CSSC[C@H](NC1=O)C(=O)N[C@@H]([C@@H](C)O)C(=O)N[C@@H](C)C(=O)N[C@@H](CO)C(=O)N[C@@H]([C@@H](C)CC)C(=O)N1CCC[C@H]1C(=O)N1CCC[C@H]1C(=O)N[C@@H](CCC(N)=O)C(=O)N2
% inhibition at 100 µM [11]: 0%
% inhibition at 100 µM [12]: 12.8%

B8: Example 123 (peptide)
peptide: XCTASIPPQCY
HELM: PEPTIDE1{[Nle].C.T.A.S.I.P.P.Q.C.Y.[dP].Q}$PEPTIDE1,PEPTIDE1,2:R3-10:R3|PEPTIDE1,PEPTIDE1,1:R1-13:R2$$$V2.0
SMILES: CCCC[C@@H]1NC(=O)[C@H](CCC(N)=O)NC(=O)[C@H]2CCCN2C(=O)[C@H](Cc2ccc(O)cc2)NC(=O)[C@@H]2CSSC[C@H](NC1=O)C(=O)N[C@@H]([C@@H](C)O)C(=O)N[C@@H](C)C(=O)N[C@@H](CO)C(=O)N[C@@H]([C@@H](C)CC)C(=O)N1CCC[C@H]1C(=O)N1CCC[C@H]1C(=O)N[C@@H](CCC(N)=O)C(=O)N2
notes: also called Ex. 123
% inhibition at 100 µM [13]: 0%
% inhibition at 100 µM (Chymase, from human skin [10]): 0%

cyclo([Nle]CTASIP[Pro(4NHCOPhe)]QCY[dP]P) (disulfide 2-10; reading uncertain, also called Ex. 88) [Example 88]
% inhibition at 100 µM (Chymase, from human skin [10]): 0%

B9: Example 96 (peptide)
peptide: XCTASIPPQCX
HELM: PEPTIDE1{[Nle].C.T.A.S.I.P.P.Q.C.[O=C([C@H](Cc1ccccc1Cl)N[*:1])[*:2]].[dP].P}$PEPTIDE1,PEPTIDE1,2:R3-10:R3|PEPTIDE1,PEPTIDE1,1:R1-13:R2$$$V2.0
SMILES: CCCC[C@@H]1NC(=O)[C@@H]2CCCN2C(=O)[C@H]2CCCN2C(=O)[C@H](Cc2ccccc2Cl)NC(=O)[C@@H]2CSSC[C@H](NC1=O)C(=O)N[C@@H]([C@@H](C)O)C(=O)N[C@@H](C)C(=O)N[C@@H](CO)C(=O)N[C@@H]([C@@H](C)CC)C(=O)N1CCC[C@H]1C(=O)N1CCC[C@H]1C(=O)N[C@@H](CCC(N)=O)C(=O)N2
notes: also called Ex. 96
% inhibition at 100 µM [14]: 0%
% inhibition at 100 µM [13]: 0%
% inhibition at 100 µM (Chymase, from human skin [10]): 0%
